Read-outs that look alike come from different tables or passages of the source. Each block holds one binder with its values, some of them ahead of it.
Columns and labels:
[1] = biological target: T1, human IL-33 (mm2) (human, UniProt O95760 112-270); test: cell-based or functional assay
T1 chain: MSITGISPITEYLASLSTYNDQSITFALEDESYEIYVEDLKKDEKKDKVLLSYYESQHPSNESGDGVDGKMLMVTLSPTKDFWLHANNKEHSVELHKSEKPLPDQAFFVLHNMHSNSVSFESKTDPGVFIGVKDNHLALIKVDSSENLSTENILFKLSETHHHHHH

[2] = biological target: T2, human IL-33 WT (R&D) (human, UniProt O95760 112-270); test: cell-based or functional assay
T2 sequence: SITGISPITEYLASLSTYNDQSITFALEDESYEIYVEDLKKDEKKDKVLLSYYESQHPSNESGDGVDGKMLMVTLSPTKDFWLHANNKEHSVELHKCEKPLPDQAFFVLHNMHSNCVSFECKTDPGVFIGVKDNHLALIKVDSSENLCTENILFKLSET

[3] = biological target: T3, cynomolgus monkey IL-33 (cys mut) (cynomolgus monkey); test: cell-based or functional assay
T3 chain: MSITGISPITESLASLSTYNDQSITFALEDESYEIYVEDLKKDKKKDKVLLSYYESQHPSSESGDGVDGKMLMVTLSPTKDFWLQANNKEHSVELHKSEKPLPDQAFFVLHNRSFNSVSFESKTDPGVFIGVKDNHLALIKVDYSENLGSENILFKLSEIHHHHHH

[4] = biological target: T1, human IL-33 (mm2); test: cell-based or functional assay
[5] = biological target: T3, cynomolgus monkey IL-33 (cys mut); test: cell-based or functional assay
[6] = biological target: T1, human IL-33 (mm2); test: cell-based or functional assay
[7] = biological target: T3, cynomolgus monkey IL-33 (cys mut); test: cell-based or functional assay
[8] = biological target: T1, human IL-33 (mm2); test: cell-based or functional assay
[9] = biological target: T3, cynomolgus monkey IL-33 (cys mut); test: cell-based or functional assay
[10] = biological target: T1, human IL-33 (mm2); test: cell-based or functional assay
[11] = biological target: T1, human IL-33 (mm2); test: cell-based or functional assay
[12] = biological target: T3, cynomolgus monkey IL-33 (cys mut); test: cell-based or functional assay
[13] = biological target: T1, human IL-33 (mm2); test: cell-based or functional assay
[14] = biological target: T2, human IL-33 WT (R&D); test: cell-based or functional assay; remark: listed apart in the source
[15] = biological target: T1, human IL-33 (mm2); test: cell-based or functional assay
[16] = biological target: T2, human IL-33 WT (R&D); test: cell-based or functional assay; remark: listed apart in the source
[17] = biological target: T3, cynomolgus monkey IL-33 (cys mut); test: cell-based or functional assay
[18] = biological target: T1, human IL-33 (mm2); test: SPR, IgG captured by anti-human Fc, IL-33 in solution
Procedure: (§1) Binding to human and cynomolgus monkey IL-33 was measured by surface plasmon resonance using a BIAcore T200 instrument. An anti-human Fc antibody was immobilized on a CM5 chip, and anti-IL-33 antibodies were captured.

[19] = biological target: T3, cynomolgus monkey IL-33 (cys mut); test: as above
Procedure: as §1

[20] = biological target: T1, human IL-33 (mm2); test: cell-based or functional assay
[21] = biological target: T2, human IL-33 WT (R&D); test: cell-based or functional assay; remark: listed apart in the source
[22] = biological target: T1, human IL-33 (mm2); test: cell-based or functional assay
[23] = biological target: T1, human IL-33 (mm2); test: cell-based or functional assay
[24] = biological target: T4, wild-type cynomolgus monkey IL-33 (cynomolgus monkey); test: cell-based or functional assay
T4 chain: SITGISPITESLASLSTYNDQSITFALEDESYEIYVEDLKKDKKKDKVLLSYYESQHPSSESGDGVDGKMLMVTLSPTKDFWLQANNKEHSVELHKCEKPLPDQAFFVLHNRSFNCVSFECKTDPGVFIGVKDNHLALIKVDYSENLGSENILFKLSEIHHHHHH

[25] = biological target: T2, human IL-33 WT (R&D); test: cell-based or functional assay; remark: listed apart in the source
[26] = biological target: T3, cynomolgus monkey IL-33 (cys mut); test: cell-based or functional assay
[27] = biological target: T1, human IL-33 (mm2); test: cell-based or functional assay
[28] = biological target: T4, wild-type cynomolgus monkey IL-33; test: cell-based or functional assay
[29] = biological target: T2, human IL-33 WT (R&D); test: cell-based or functional assay; remark: listed apart in the source
[30] = biological target: T3, cynomolgus monkey IL-33 (cys mut); test: cell-based or functional assay
[31] = biological target: T1, human IL-33 (mm2); test: cell-based or functional assay
[32] = biological target: T2, human IL-33 WT (R&D); test: cell-based or functional assay; remark: listed apart in the source
[33] = biological target: T2, human IL-33 WT (R&D); test: Octet, captured on anti-Fc tip; IL-33 premixed with IL33-158LS (competitor)

IC50, HEK293 ST2 NFkB [1]: 0.093 nM | IC50, HEK293 ST2 NFkB [2]: 0.322 nM | IC50, HEK293 ST2 NFkB [3]: 0.184 nM | IC50, HEK293 ST2 NFkB [4]: 0.059 nM | IC50, HEK293 ST2 NFkB [5]: 0.131 nM | IC50, HEK293 ST2 NFkB [6]: 0.114 nM | IC50, PBMC mm2 [6]: 0.004 nM | IC50, whole blood mm2 [6]: 0.009 nM | IC50, HEK293 ST2 NFkB cyno IL-33 [7]: 0.18 nM | IC50, HEK293 ST2 NFkB [8]: 0.057 nM | IC50, HEK293 ST2 NFkB [9]: 0.077 nM | IC50, IFN-γ production in human PBMC [10]: 0.0014 nM | IC50, HEK293 ST2 NFkB [11]: 0.04 nM | IC50, HEK293 ST2 NFkB [12]: 0.054 nM | EC50 of IL-33 + 0.2 pM 7E8, human PBMC donor 149 [13]: 0.9 pM | EC50 of IL-33 + 0.2 pM 7E8, human PBMC donor 172 [13]: 15.1 pM | EC50 of IL-33 + 2 pM 7E8, human PBMC donor 149 [13]: 2.6 pM | EC50 of IL-33 + 2 pM 7E8, human PBMC donor 172 [13]: 23.2 pM | EC50 of IL-33 + 20 pM 7E8, HEK293 ST2 NFkB reporter cells [13]: 2.6 pM | EC50 of IL-33 + 20 pM 7E8, human PBMC donor 149 [13]: 29.1 pM | EC50 of IL-33 + 20 pM 7E8, human PBMC donor 172 [13]: 154 pM | EC50 of IL-33 + 200 pM 7E8, HEK293 ST2 NFkB reporter cells [13]: 29.1 pM | EC50 of IL-33 + 200 pM 7E8, human PBMC donor 149 [13]: 262 pM | EC50 of IL-33 + 200 pM 7E8, human PBMC donor 172 [13]: 400 pM | EC50 of IL-33 + 2 nM 7E8, HEK293 ST2 NFkB reporter cells [13]: 0.262 nM | EC50 of IL-33 + 2 nM 7E8, human PBMC donor 149 [13]: 2.83 nM | EC50 of IL-33 + 2 nM 7E8, human PBMC donor 172 [13]: 1.22 nM | EC50 of IL-33 + 20 nM 7E8, HEK293 ST2 NFkB reporter cells [13]: 2.83 nM | EC50 of IL-33 + 2 pM 7E8, HEK293 ST2 NFkB reporter cells [14]: 8 pM | EC50 of IL-33 + 20 pM 7E8, HEK293 ST2 NFkB reporter cells [14]: 10.2 pM | EC50 of IL-33 + 200 pM 7E8, HEK293 ST2 NFkB reporter cells [14]: 25.8 pM | EC50 of IL-33 + 2 nM 7E8, HEK293 ST2 NFkB reporter cells [14]: 0.103 nM | EC50 of IL-33 + 20 nM 7E8, HEK293 ST2 NFkB reporter cells [14]: 0.653 nM | IC50, HEK293 ST2 NFkB [15]: 0.043 nM | IC50, HEK293 ST2 NFkB [16]: 3.21 nM | IC50, HEK293 ST2 NFkB [17]: 0.069 nM | Kd [18]: 0.171 nM | Kd [19]: 0.142 nM | IC50, human whole blood [20]: 0.014 nM | IC50, human whole blood [21]: 0.387 nM | IC50, HEK293 ST2 NFkB [22]: 0.019 nM
B1: 7E8 CDR graft (antibody, human IgG1, kappa)
heavy: HSEVQLVESGGGLVQPGGSLRLSCAASGFTFSSYWMYWVRQAPGKGLEWVASITPNGGNTYYPDSVKGRFTISRDNAKNSLYLQMNSLRAEDTAVYYCARGHYYYTSYSLGYWGQGTLVTVSSASTKGPSVFPLAPSSKSTSGGTAALGCLVKDYFPEPVTVSWNSGALTSGVHTFPAVLQSSGLYSLSSVVTVPSSSLGTQTYICNVNHKPSNTKVDKKVEPKSCDKTHTCPPCPAPEAAGAPSVFLFPPKPKDTLMISRTPEVTCVVVDVSHEDPEVKFNWYVDGVEVHNAKTKPREEQYNSTYRVVSVLTVLHQDWLNGKEYKCKVSNKALPAPIEKTISKAKGQPREPQVYTLPPSREEMTKNQVSLTCLVKGFYPSDIAVEWESNGQPENNYKTTPPVLDSDGSFFLYSKLTVDKSRWQQGNVFSCSVMHEALHNHYTQKSLSLSPGK
light: DIQMTQSPSSLSASVGDRVTITCKASQNINKHLDWYQQKPGKAPKLLIYFTNNLQTGVPSRFSGSGSGTDFTLTISSLQPEDFATYYCFQYNNGWTFGGGTKVEIKRTVAAPSVFIFPPSDEQLKSGTASVVCLLNNFYPREAKVQWKVDNALQSGNSQESVTEQDSKDSTYSLSSTLTLSKADYEKHKVYACEVTHQGLSSPVTKSFNRGEC
notes: also called CDR-grafted 7E8; 7E8 CDR-grafted

IC50, HEK293 ST2 NFkB [1]: 0.162 nM | IC50, HEK293 ST2 NFkB [2]: 0.983 nM | IC50, HEK293 ST2 NFkB [3]: 0.198 nM | IC50, HEK293 ST2 NFkB [23]: 0.009 nM | Cynomolgus monkey:human IC50 ratio: wild-type IL-33 [24]: 9.2 | IC50, HEK293 ST2 NFkB [24]: 0.562 nM | IC50, HEK293 ST2 NFkB [25]: 0.061 nM | Cynomolgus monkey:human IC50 ratio: cysteine mutant IL-33 [26]: 1.4 | IC50, HEK293 ST2 NFkB [26]: 0.013 nM | IC50, IFN-γ production in human PBMC [10]: 0.0014 nM | IC50, HEK293 ST2 NFkB [27]: 0.019 nM | Cynomolgus monkey:human IC50 ratio: wild-type IL-33 [28]: 4.2 | IC50, HEK293 ST2 NFkB (DTT-pretreated IL-33) [28]: 1.39 nM | IC50, HEK293 ST2 NFkB (DTT-pretreated IL-33) [29]: 0.331 nM | Cynomolgus monkey:human IC50 ratio: cysteine mutant IL-33 [30]: 1.8 | IC50, HEK293 ST2 NFkB [30]: 0.034 nM | IC50, human whole blood [20]: 0.021 nM | IC50, human whole blood [21]: 0.868 nM | IC50, HEK293 ST2 NFkB [31]: 0.079 nM | IC50, HEK293 ST2 NFkB [32]: 2.66 nM
B2: IL33-158LS (antibody, human IgG1, kappa)
heavy: EVQLVESGGGLVQPGGSLRLSCAASGFTFSSYWMYWVRQAPGKGLEWVAAITPNAGEDYYPESVKGRFTISRDNAKNSLYLQMNSLRAEDTAVYYCARGHYYYTSYSLGYWGQGTLVTVSSASTKGPSVFPLAPSSKSTSGGTAALGCLVKDYFPEPVTVSWNSGALTSGVHTFPAVLQSSGLYSLSSVVTVPSSSLGTQTYICNVNHKPSNTKVDKKVEPKSCDKTHTCPPCPAPEAAGAPSVFLFPPKPKDTLMISRTPEVTCVVVDVSHEDPEVKFNWYVDGVEVHNAKTKPREEQYNSTYRVVSVLTVLHQDWLNGKEYKCKVSNKALPAPIEKTISKAKGQPREPQVYTLPPSREEMTKNQVSLTCLVKGFYPSDIAVEWESNGQPENNYKTTPPVLDSDGSFFLYSKLTVDKSRWQQGNVFSCSVLHEALHSHYTQKSLSLSPG
light: DIQMTQSPSSLSASVGDRVTITCKASQNINKHLDWYQQKPGKAPKLLIYFTNNLQTGVPSRFSGSGSGTDFTLTISSLQPEDFATYYCFQYNQGWTFGGGTKVEIKRTVAAPSVFIFPPSDEQLKSGTASVVCLLNNFYPREAKVQWKVDNALQSGNSQESVTEQDSKDSTYSLSSTLTLSKADYEKHKVYACEVTHQGLSSPVTKSFNRGEC

binding result [33]: binds
B3: IL33-271 (antibody, human IgG1, kappa, V domains shown)
VH: QVLLVQSGAEVKKPGATVKVSCKASGSTFTGYYMHWVRQAPGQGLEWMGWINPNNGGTNYAQKFQGRVTMTRDTSISTAYMELSRLRSDDTAVYYCARELRYNWKSWGQGTLVTVSS
VL: EIVLTQSPGTLSLSPGERVTLSCRASQSVGRPYLAWYQQIPGQAPRLLIYGASSRATDIPDRFSGNGSGTDFTLTISRLEPEDFAVYYCQQYDNSPYTFGQGTRLEIKR
notes: also called control non-neutralizing anti-IL-33 antibody

Source: patent US20180037644A1 (Pfizer, published 2018)
